Assay results as given in article PMC4437028 (2015).
Blank lines part the entries; values can stand above or below the molecule they belong to.

How the values were obtained:
[1] = target: mouse Slitrk2 LRR1 (first leucine-rich repeat of Slit and Trk-like family member 2), wild type (UniProt Q810C0); test: SPR equilibrium analysis; settings: point at 4 µM PTPδ Ig1-Fn1 (highest concentration); Slitrk2 LRR1 immobilized on a CM5 sensor tip; parent: est. 600; read off a plot
[2] = target: T1, mouse Slitrk2 LRR1 (first leucine-rich repeat of Slit and Trk-like family member 2), wild type, Q810C0; test: SPR equilibrium analysis; settings: chain shown with the change, Slitrk2 LRR1 immobilized on a CM5 sensor tip
T1 chain: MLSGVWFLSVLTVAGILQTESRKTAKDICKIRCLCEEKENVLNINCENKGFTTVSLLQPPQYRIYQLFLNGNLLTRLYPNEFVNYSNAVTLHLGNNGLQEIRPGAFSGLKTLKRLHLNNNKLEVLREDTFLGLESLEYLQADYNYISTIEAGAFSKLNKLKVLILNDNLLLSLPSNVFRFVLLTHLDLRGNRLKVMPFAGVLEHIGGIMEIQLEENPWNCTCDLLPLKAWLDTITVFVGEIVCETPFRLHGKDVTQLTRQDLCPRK

[3] = target: T2, mouse Slitrk2 LRR1 (first leucine-rich repeat of Slit and Trk-like family member 2), wild type (mouse, UniProt Q810C0 1-266, N-linked glycans); test: SPR
T2 chain: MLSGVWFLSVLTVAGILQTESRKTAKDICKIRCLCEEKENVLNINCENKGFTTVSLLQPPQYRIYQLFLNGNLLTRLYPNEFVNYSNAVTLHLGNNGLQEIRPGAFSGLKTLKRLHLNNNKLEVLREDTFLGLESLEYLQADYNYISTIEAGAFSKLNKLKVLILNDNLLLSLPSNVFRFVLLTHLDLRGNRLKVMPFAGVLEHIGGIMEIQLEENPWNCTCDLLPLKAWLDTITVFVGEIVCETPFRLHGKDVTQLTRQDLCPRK

[4] = target: T3, mouse Slitrk2 LRR1 R114A (mouse, UniProt Q810C0 1-266, R114A); test: SPR
T3 sequence: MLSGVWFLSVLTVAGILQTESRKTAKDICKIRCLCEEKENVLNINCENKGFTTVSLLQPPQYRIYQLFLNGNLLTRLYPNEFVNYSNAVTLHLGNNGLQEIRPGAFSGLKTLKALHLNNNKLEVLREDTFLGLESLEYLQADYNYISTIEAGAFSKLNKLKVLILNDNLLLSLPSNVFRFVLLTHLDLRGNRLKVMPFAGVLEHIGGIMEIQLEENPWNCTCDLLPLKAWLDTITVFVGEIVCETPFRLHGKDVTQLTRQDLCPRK

[5] = target: T4, mouse Slitrk2 LRR1 F247A H250A (mouse, UniProt Q810C0 1-266, F247A | H250A); test: SPR
T4 sequence: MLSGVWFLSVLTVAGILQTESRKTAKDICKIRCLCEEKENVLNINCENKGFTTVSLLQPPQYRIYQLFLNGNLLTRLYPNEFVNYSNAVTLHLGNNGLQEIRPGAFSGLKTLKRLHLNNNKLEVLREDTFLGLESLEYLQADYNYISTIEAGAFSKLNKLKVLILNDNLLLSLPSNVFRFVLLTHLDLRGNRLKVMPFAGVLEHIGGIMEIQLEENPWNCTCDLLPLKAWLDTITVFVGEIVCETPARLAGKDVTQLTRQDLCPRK

[6] = target: mouse Slitrk2 LRR1 (first leucine-rich repeat of Slit and Trk-like family member 2), wild type (mouse) (UniProt Q810C0); test: crystal structure; Slitrk2 LRR1 and PTPδ Ig1-Fn1 mixed at a molar ratio of 1:1, treated with neuraminidase; sitting drop vapor diffusion, 293 K, 15% PEG4000, 0.1 M sodium acetate, 0.1 M MES (pH 6.0); 3.35 Å

B1: mouse PTPδ Ig1-Fn1 (residues 28-418), splice variant meA9B+, Q64487 Y273A (protein)
chain: ETPPRFTRTPVDQTGVSGGVASFICQATGDPRPKIVWNKKGKKVSNQRFEVIEFDDGSGSVLRIQPLRTPRDEAIYECVASNNVGEISVSTRLTVLREDQIPRGFPTIDMGPQLKVVERTRTATMLCAASGNPDPEITWFKDFLPVDTSNNNGRIKQLRSESIGGTPIRGALQIEQSEESDQGKYECVATNSAGTRYSAPANLYVRELREVRRVPPRFSIPPTNHEIMPGGSVNITCVAVGSPMPAVKWMLGAEDLTPEDDMPIGRNVLELNDVRQSANYTCVAMSTLGVIEAIAQITVKALPKPPGTPVVTESTATSITLTWDSGNPEPVSYYIIQHKPKNSEEPYKEIDGIATTRYSVAGLSPYSDYEFRVVAVNNIGRGPASEPVLTQ
Kd ([2]; PTPδ Ig1-Fn1 injected, parent: 355.5 ± 6.5 nM): 312 nM
response (Response unit) ([2]; point at 4 µM PTPδ Ig1-Fn1 (highest concentration), parent: est. 600, read off a …): 500

B3: mouse PTPδ Ig1-Fn1, splice variant meA-B+ (domain or fragment)
chain: ETPPRFTRTPVDQTGVSGGVASFICQATGDPRPKIVWNKKGKKVSNQRFEVIEFDDGSGSVLRIQPLRTPRDEAIYECVASNNVGEISVSTRLTVLREDQIPRGFPTIDMGPQLKVVERTRTATMLCAASGNPDPEITWFKDFLPVDTSNNNGRIKQLRSGALQIEQSEESDQGKYECVATNSAGTRYSAPANLYVRELREVRRVPPRFSIPPTNHEIMPGGSVNITCVAVGSPMPYVKWMLGAEDLTPEDDMPIGRNVLELNDVRQSANYTCVAMSTLGVIEAIAQITVKALPKPPGTPVVTESTATSITLTWDSGNPEPVSYYIIQHKPKNSEEPYKEIDGIATTRYSVAGLSPYSDYEFRVVAVNNIGRGPASEPVLTQ
Kd [3]: 451 nM

Now from value to molecule:

response (Response unit) [1]: 97
Molecule: mouse PTPδ Ig1-Fn1 (residues 28-418), splice variant meA9B+ (from UniProt Q64487) R236E

Kd [3]: 356 nM
Kd [4]: 257 nM
Kd [5]: 580 nM
stoichiometry N [6]: 1
B2: mouse PTPδ Ig1-Fn1 (residues 28-418), splice variant meA9B+ (domain or fragment)
chain: ETPPRFTRTPVDQTGVSGGVASFICQATGDPRPKIVWNKKGKKVSNQRFEVIEFDDGSGSVLRIQPLRTPRDEAIYECVASNNVGEISVSTRLTVLREDQIPRGFPTIDMGPQLKVVERTRTATMLCAASGNPDPEITWFKDFLPVDTSNNNGRIKQLRSESIGGTPIRGALQIEQSEESDQGKYECVATNSAGTRYSAPANLYVRELREVRRVPPRFSIPPTNHEIMPGGSVNITCVAVGSPMPYVKWMLGAEDLTPEDDMPIGRNVLELNDVRQSANYTCVAMSTLGVIEAIAQITVKALPKPPGTPVVTESTATSITLTWDSGNPEPVSYYIIQHKPKNSEEPYKEIDGIATTRYSVAGLSPYSDYEFRVVAVNNIGRGPASEPVLTQ
modifications: N-linked glycans
